We go through two molecules from article PMC10319324.

For assay [1], the target named is bovine 20S proteasome (bovine) (UniProt Q2YDE4).
Assay [2] deals with T1, recombinant wildtype human PI31 (Proteasome Inhibitor of 31,000 Da) (human), Q92530.
T1 chain: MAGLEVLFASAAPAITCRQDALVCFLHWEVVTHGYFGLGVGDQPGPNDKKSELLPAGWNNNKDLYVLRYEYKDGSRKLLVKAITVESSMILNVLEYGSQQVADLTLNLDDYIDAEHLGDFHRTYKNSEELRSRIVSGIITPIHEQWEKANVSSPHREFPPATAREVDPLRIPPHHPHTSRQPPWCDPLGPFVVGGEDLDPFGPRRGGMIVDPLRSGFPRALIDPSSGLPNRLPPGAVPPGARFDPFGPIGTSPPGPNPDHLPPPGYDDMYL
Nature of the assay: mass photometry; monomer to dimer; His-PI31 diluted to 40 nM total monomer in PBS, recorded immediately after mixing (TwoMP, Refeyn); peaks at 36 to 37 and 56 to 59 kDa. The note with it: remark: other sources report otherwise.

B1: human PI31 D197A point mutant (natural protein)
chain: MAGLEVLFASAAPAITCRQDALVCFLHWEVVTHGYFGLGVGDQPGPNDKKSELLPAGWNNNKDLYVLRYEYKDGSRKLLVKAITVESSMILNVLEYGSQQVADLTLNLDDYIDAEHLGDFHRTYKNSEELRSRIVSGIITPIHEQWEKANVSSPHREFPPATAREVDPLRIPPHHPHTSRQPPWCDPLGPFVVGGEALDPFGPRRGGMIVDPLRSGFPRALIDPSSGLPNRLPPGAVPPGARFDPFGPIGTSPPGPNPDHLPPPGYDDMYL
In assay [1], B1 gave an inhibition of β5-specific peptide hydrolysis by 20S (143 nM 20S, 1.4 μM PI31) (times less well than wildtype hPI31) of 3.

B2: recombinant wildtype human PI31 (Proteasome Inhibitor of 31,000 Da), Q92530 1-271 (natural protein)
chain: MAGLEVLFASAAPAITCRQDALVCFLHWEVVTHGYFGLGVGDQPGPNDKKSELLPAGWNNNKDLYVLRYEYKDGSRKLLVKAITVESSMILNVLEYGSQQVADLTLNLDDYIDAEHLGDFHRTYKNSEELRSRIVSGIITPIHEQWEKANVSSPHREFPPATAREVDPLRIPPHHPHTSRQPPWCDPLGPFVVGGEDLDPFGPRRGGMIVDPLRSGFPRALIDPSSGLPNRLPPGAVPPGARFDPFGPIGTSPPGPNPDHLPPPGYDDMYL
With B2, in assay [2], the [monomer]/[M]T ratio turned out to be 0.32, the dimer counts (mass photometry) was 2060 counts, the monomer counts (mass photometry) worked out at 2180 counts and the stoichiometry N was 2.
